Assay results reported in article PMC4803054 (Genes & Development, 2016).
Values belong to the binder of their own block, whether it stands above or below them.

Experiments:
Test in all cases: pull-down
[1] = target: T1, Mte1 (GST tag cleaved off) (S. cerevisiae, UniProt P53227 1-271)
T1 sequence (looked up): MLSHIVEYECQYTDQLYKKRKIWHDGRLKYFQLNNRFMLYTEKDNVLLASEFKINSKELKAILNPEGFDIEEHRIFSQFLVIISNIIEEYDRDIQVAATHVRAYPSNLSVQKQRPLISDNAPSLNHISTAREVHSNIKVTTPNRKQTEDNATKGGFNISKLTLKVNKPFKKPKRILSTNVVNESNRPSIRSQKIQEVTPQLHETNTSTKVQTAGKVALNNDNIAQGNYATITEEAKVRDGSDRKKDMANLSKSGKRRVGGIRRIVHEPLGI

MHF complex (Mhf1-Mhf2) = MHF complex (Mhf1-Mhf2) (S. cerevisiae, UniProt Q3E835 1-90; Q3E829 1-80)
Mph1-MHF complex = Mph1-MHF complex (S. cerevisiae, UniProt P40562 1-993; Q3E835 1-90; Q3E829 1-80)

binding result [1]: binds
binding result (MHF complex (Mhf1-Mhf2)): binds
B1: MBP-tagged Mph1(754–993) (domain or fragment, S. cerevisiae, UniProt P40562 754-993, looked up)
chain: SNENPSKKRKIFKALDNLENDSTEEASSSLETEDEEVSDDNNVFIAEGQNGCQKDLETAIIRTGESLTTLKPLHNFERPNMALFVNDCGLPTKIEKNVKDIRGNQHNLEKEKSCTVDKNNMVLSLDDWNFFRNRYIPEGVSFDVEPNFVQYTKGVKVPHCHKVSKIITLFNDESNDNKKRTIDMNYTKCLARGMLRDEKKFVKVNDKSQVDNNSVNHDSSQSFTLSNAELDDILGSDSDF

binding result (Mph1-MHF complex): binds
B2: GST-Mte1 fragment 201-271 (domain or fragment)
chain: LHETNTSTKVQTAGKVALNNDNIAQGNYATITEEAKVRDGSDRKKDMANLSKSGKRRVGGIRRIVHEPLGI
